The results in this text go back to the Immune Epitope Database (IEDB).

The target in one test is HLA-B*40:02. Put plainly: IEDB peptide-MHC binding, purified MHC/competitive/fluorescence; ≥ and ≤ were set here for values at or beyond the usual limits of such assays. As to conditions: source organism: Homo sapiens.
Test [1] addresses HLA-A*24:02. The description is as above. The conditions noted are these: source organism: Homo sapiens.
For a further test, the target named is HLA-C*07:02. Put plainly: IEDB peptide-MHC binding, purified MHC/direct/fluorescence; filed as Kd, often an IC50 or EC50 that approximates it; ≥ and ≤ were set here for values at or beyond the usual limits of such assays. As to conditions: source organism: Homo sapiens.
The target in the next test is HLA-B*58:01. Put plainly: IEDB peptide-MHC binding, purified MHC/competitive/fluorescence; filed as Kd, often an IC50 or EC50 that approximates it; ≥ and ≤ were set here for values at or beyond the usual limits of such assays. The conditions noted are these: source organism: Corynebacterium glutamicum ATCC 13032.
For test [2], the target named is HLA-A*02:01. The test is described as above.
For a further test, the target named is HLA-B*40:01. The description is as above. As to conditions: source organism: Corynebacterium glutamicum ATCC 13032.
Another test concerns the target HLA-B*27:05. Described as above. As to conditions: source organism: Corynebacterium glutamicum ATCC 13032.
In test [3] the target is HLA-B*07:02. The test is described as above. The conditions noted are these: source organism: Corynebacterium glutamicum ATCC 13032.
Test [4] addresses HLA-B*15:01. The description is as above. The conditions noted are these: source organism: Corynebacterium glutamicum ATCC 13032.
Test [5] addresses HLA-A*03:01. The description is as above. The conditions noted are these: source organism: Corynebacterium glutamicum ATCC 13032.
Test [6] deals with HLA-A*01:01. The test is described as above. The conditions noted are these: source organism: Corynebacterium glutamicum ATCC 13032.
Test [7] has as its target HLA-A*24:02. The test is described as above. The conditions noted are these: source organism: Corynebacterium glutamicum ATCC 13032.
The target of the next test is HLA-B*27:03. The description is as above. As to conditions: source organism: Zaire ebolavirus.
The next test deals with HLA-A*26:01. Described as above. As to conditions: source organism: Zaire ebolavirus.
The target of a further test is HLA-B*39:01. Described as above. The conditions noted are these: source organism: Zaire ebolavirus.
The next test addresses HLA-A*69:01. Described as above. The conditions noted are these: source organism: Zaire ebolavirus.
The target of test [8] is HLA-B*57:01. The description is as above. The conditions noted are these: source organism: Zaire ebolavirus.
A further test deals with HLA-B*51:01. The test is described as above. The conditions noted are these: source organism: Zaire ebolavirus.
Another test deals with HLA-A*25:01. Described as above. As to conditions: source organism: Zaire ebolavirus.
The target in a further test is HLA-B*35:01. The description is as above. The conditions noted are these: source organism: Zaire ebolavirus.
For another test, the target named is HLA-A*02:16. In words: IEDB peptide-MHC binding, purified MHC/direct/fluorescence; filed as Kd, often an IC50 or EC50 that approximates it; ≥ and ≤ were set here for values at or beyond the usual limits of such assays. The conditions noted are these: source organism: Zaire ebolavirus.
For another test, the target named is HLA-A*02:11. The description is as above. As to conditions: source organism: Zaire ebolavirus.
The next test addresses HLA-A*68:02. The test is described as above. The conditions noted are these: source organism: Zaire ebolavirus.
For another test, the target named is HLA-A*02:03. The description is as above. As to conditions: source organism: Zaire ebolavirus.
A further test concerns the target HLA-A*02:19. The test is described as above. As to conditions: source organism: Zaire ebolavirus.
The target of another test is HLA-A*02:12. The test is described as above. The conditions noted are these: source organism: Zaire ebolavirus.
The target of test [9] is HLA-B*15:01. The description is as above. As to conditions: source organism: Sudan ebolavirus - Maleo (1979).
For test [10], the target named is HLA-A*03:01. The test is described as above. As to conditions: source organism: Zaire ebolavirus.
Another test deals with HLA-A*30:02. Put plainly: IEDB peptide-MHC binding, purified MHC/competitive/radioactivity; filed as Kd, often an IC50 or EC50 that approximates it; ≥ and ≤ were set here for values at or beyond the usual limits of such assays. The conditions noted are these: source organism: Dengue virus 4 Philippines/H241/1956.
For a further test, the target named is HLA-A*32:01. The description is as above. As to conditions: source organism: Dengue virus 4 Philippines/H241/1956.
Test [11] deals with HLA-B*57:01. Described as above. The conditions noted are these: source organism: Dengue virus 4 Philippines/H241/1956.
Test [12] addresses HLA-A*01:01. The description is as above. As to conditions: source organism: Dengue virus 4 Philippines/H241/1956.
A further test has as its target HLA-B*46:01. In words: IEDB peptide-MHC binding, purified MHC/direct/fluorescence; filed as Kd, often an IC50 or EC50 that approximates it; ≥ and ≤ were set here for values at or beyond the usual limits of such assays. The conditions noted are these: source organism: dengue virus type 4.
A further test concerns the target HLA-B*15:02. Described as above. As to conditions: source organism: dengue virus type 4.
The target in test [13] is HLA-A*02:01. Put plainly: IEDB peptide-MHC binding, purified MHC/competitive/radioactivity; ≥ and ≤ were set here for values at or beyond the usual limits of such assays. As to conditions: source organism: Toxoplasma gondii.
The target in a further test is HLA-A*11:01. The test is described as above. As to conditions: source organism: Toxoplasma gondii.
The target of test [14] is HLA-B*07:02. The description is as above. As to conditions: source organism: Toxoplasma gondii.

Some results are limits rather than exact numbers.

Broadly, the IC50 is the midpoint of a concentration-inhibition curve. As a reminder, the Kd is the equilibrium constant for the complex coming apart. As to FYYNAFHWAI, the IC50 was ≥ 20 µM with HLA-B*40:02 and 0.305 µM with HLA-A*24:02 [1]. In addition, the Kd with HLA-C*07:02 came out at 0.182 µM.
For MSSAAHLLY, the dissociation constant Kd with HLA-B*58:01 is 0.0061 µM; with HLA-A*02:01 [2] (source organism: Corynebacterium glutamicum ATCC 13032), ≥ 20 µM; in the test with HLA-B*40:01 it was ≥ 20 µM; with HLA-B*27:05 it was ≥ 20 µM; with HLA-B*07:02 [3], ≥ 20 µM; with HLA-B*15:01 [4], 0.0465 µM. In addition, the Kd in the test with HLA-A*03:01 [5] is 0.161 µM; with HLA-A*01:01 [6], 0.0141 µM; in the test with HLA-A*24:02 [7], ≥ 20 µM.
Turning to NFFHASLAY, the Kd in the test with HLA-B*27:03, with HLA-A*26:01, with HLA-B*39:01, with HLA-A*69:01, with HLA-B*57:01 [8] and in the test with HLA-B*51:01 was ≥ 20 µM each time. For the same sequence, the Kd with HLA-A*25:01 is ≥ 20 µM; with HLA-A*02:01 [2] (source organism: Zaire ebolavirus) it was ≥ 20 µM; with HLA-B*35:01, 0.006 µM; in the test with HLA-A*02:16 it was ≥ 20 µM; with HLA-A*02:11, ≥ 20 µM; with HLA-A*68:02, ≥ 20 µM. The Kd with HLA-A*02:03 was ≥ 20 µM; with HLA-A*02:19 it was ≥ 20 µM; with HLA-A*02:12 it was ≥ 20 µM; with HLA-B*15:01 [9], 0.0641 µM; with HLA-A*03:01 [10], ≥ 20 µM.
Turning to RTWAYHGSY, the Kd was 0.00019 µM in the test with HLA-A*30:02; 0.00146 µM with HLA-A*32:01; 0.0158 µM with HLA-B*57:01 [11]; 1.28 µM in the test with HLA-A*01:01 [12]; ≥ 20 µM in the test with HLA-B*46:01; ≥ 20 µM with HLA-B*15:02.
In the case of STFWPCLLR, the IC50 in the test with HLA-A*02:01 [13] is 27 µM; with HLA-A*11:01, 0.0093 µM; with HLA-B*07:02 [14], ≥ 50 µM.
